One experiment concerns MOR203-1. Nature of the experiment: Co-immunoprecipitation with HA-tagged MOR203-1. The experiment is classed as binding, mouse. To be noted: Flag-tagged protein, 293T cells, HA-MOR203-1 precipitated. The protocol: Given the ability of REEP and/or RTP to promote cell-surface expression of ORs, it was hypothesized that they may also interact with OR proteins. This was assessed using co-immunoprecipitation assays. HA-tagged MOR203-1 and Flag-tagged REEP1, RTP1 or ICAP-1, a negative control (see, e.g., Zawistowski, J. S., et al. (2002) Hum Mol Genet. 11, 389-396; herein incorporated by reference in its entirety) were transfected in 293T cells. After the cell extracts were precipitated with anti-Flag antibodies, proteins were eluted in SDS-sample buffer at room temperature whereupon western blotting analysis was performed to detect the OR proteins. OR proteins were detected as high molecular weight bands after precipitation of REEP1 or RTP1 (see FIG. 7B, lanes 1 and 2). […] The present invention is not limited to a particular mechanism. Indeed, an understanding of the mechanism is not necessary to practice the present invention.
293T cells in 100 mm dishes were transfected with ORs, REEP1, and/or RTP1 cDNAs. 16 hours after transfection, cells were lysed in lysis buffer (50 mM Tris (7.4), 150 mM NaCl, 1% NP-40, 0.5 mM PMSF, 2 mM Benzamidene, 0.5 ug/ml Leupeptin, 1.4 ug/ml pepstatin A, 2.4 ug/ml chymostatin, 15 ug/ml aprotinin, 1 mM sodium orthovanadate). The lysis were incubated with anti-Flag M2 affinity gel (Sigma) or anti-HA affinity matrix (Roche) for 2 hours at 4 degrees C. and washed with lysis buffer. Subsequently, the bound proteins were eluted by incubation with SDS sample buffer at room temperature for 2 hours. SDS-PAGE and western blotting were performed according to Mini-Protean 3 Cell (Bio-Rad) instruction manual. ECL (Amersham) was used for detecting proteins on membranes.

In experiment [1] the test system is olfr62. Nature of the experiment: Living-cell staining of cell-surface olfr62. The experiment is classed as cell-based, mouse. The method, then: The proteins encoded by these clones were named REEP1, for Receptor Expression Enhancing Protein 1 and RTP1, for Receptor Transporting Protein 1. Subsequently, RTP2 was found, a close relative of RTP1. […] Next, REEP1, RTP1, and RTP2 were tested to detect a similar effect in promoting cell-surface expression of other ORs. Four different ORs (mouse OREG, mouse olfr62, mouse OR-S46 and rat I7) were expressed in 293T cells with or without REEP1, RTP1, or RTP2. […] Additionally, ORs transfected with REEP and/or RTP generated more immunofluorescent cells and stronger signals in positive cells compared with ORs without REEP and/or RTP (see FIG. 2A). The signal intensity and the number of immunopositive cells varied when using different ORs at each condition. […] Nonetheless, occasional immunopositive cells were observed only when the accessory proteins were co-expressed. The effects of RTP1 or RTP2 were consistently more robust than that of REEP1. The enhancement of cell-surface expression was specific for ORs and not for other GPCRs: neither REEP and/or RTP enhanced expression of the β2 adrenergic receptor, mT2R5 (a mouse bitter taste receptor) (see, e.g., Chandrashekar, J., et al. (2000) Cell 100, 703-711; herein incorporated by reference in its entirety), or a V2R pheromone receptor (VR4) (see, e.g., Matsunami, H., and Buck, L. B. (1997) Cell 90, 775-784; herein incorporated by reference in its entirety) (see FIG. 2A and FIG. 3). Finally, enhancement of cell-surface expression of MOR203-1 was not observed when other members of the REEP and RTP families (REEP2 and RTP4) were co-expressed.
293T cells were maintained in minimal essential medium containing 10% fetal bovine serum (M10). Lipofectamine 2000 (Invitrogen) was used for transfection. In live-cell staining, 16 hours after transfection, cells were incubated in M10 containing anti rhodopsin antibody, 4D2 (see, e.g., Laird, D. W., and Molday, R. S. (1988) Invest Opthalmol V is Sci 29, 419-428; herein incorporated by reference in its entirety) and 15 mM NaN3 at 4 degrees C. for 1 hour. After washing, cells were incubated with Cy3-conjugated anti mouse IgG (Jackson Immunologicals), washed and mounted. For FACS analysis, 4D2 and PE-conjugated anti mouse IgG (Jackson Immunologicals) were used to monitor the Rho tagged receptor expression. Anti HA rabbit antibodies (Sigma) and Alexa 488 conjugated anti rabbit IgG (Molecular Probes) was used to stain the HA-β2 adrenergic receptor. To establish the Hana3a cells, 1 ug/ml of puromycin was used for selection. 96 colonies were picked and assayed using luciferase assay using OREG.

In experiment [2] the test system is olfr62. Nature of the experiment: CRE-luciferase reporter gene assay, olfr62. To be noted: 293T cells and Hana3A cells expressing RTP1 variant. The experiment is classed as cell-based, mouse. The method, then: Four ORs (S6/79, S18, S46 and S50) previously assayed using other techniques (see, e.g., Malnic, B., et al. (1999) Cell 96, 713-723; herein incorporated by reference in its entirety) were tested against an assay panel of aliphatic alcohols, aldehydes and acids and some other odorants. Additionally, five “orphan” class I ORs (MOR23-1, MOR31-4, MOR31-6, MOR32-5 and MOR32-11) whose cognate ligands were unknown were tested. At a suprathreshold concentration of 100 uM, all these ORs were odorant selective, responding to only a small subset of the odorants tested (see FIG. 11A). This specificity was retained at lower, more physiologically relevant concentrations. Many of these ORs responded to odorants present in micromolar concentrations. The cell-surface expression of these ORs by living-cell immunofluorescence were evaluated. Some ORs (S18, MOR31-4, MOR31-6 and MOR32-5) were strongly expressed while other ORs (S6, S50, MOR23-1, MOR32-11) were weakly expressed (see FIG. 12). The present invention is not limited to a particular mechanism. Indeed, an understanding of the mechanism is not necessary to practice the present invention. […] Finally, two additional orphan class II ORs, MOR203-1 and olfr62, were tested against a panel of 139 odorants. […] Olfr62 responded to coumarine and piperonal (see FIG. 11C). […] When parental 293T cells for these ORs were used in this luciferase assay, little or no response to the odorants was observed. The present invention is not limited to a particular mechanism. Indeed, an understanding of the mechanism is not necessary to practice the present invention.
Dual-Glo system (Promega) for luciferase assay was used. CRE-Luciferase (Stratagene) was used to measure the receptor activities. Renilla luciferase driven by constitutively active SV40 promoter (pRL-SV40: Promega) was used as an internal control. Cells were plated on poly-D-lysine coated 96 well plates (BIOCOAT, Beckton Dickinson). After 8 hours (for experiments shown in FIGS. 8B and 8C) or 12 hours (for experiments shown in FIG. 8D and FIG. 11) after transfection, the medium was replaced with CD293 chemically defined medium (Invitrogen) and the plates were incubated for one hour at 37 degrees C. The medium was replaced with 50 ul of odorant solutions dissolved in CD293 and incubated for 10 hours (for experiments shown in FIGS. 8B and 8C) or 4 hours (for experiments shown in FIG. 8D and FIG. 11) at 37 degrees C. The manufacture's protocol for measuring luciferase and Renilla luciferase activities was followed. Luminescence was measured using Wallac Victor 1420 (Perkin-Elmer). Normalized luciferase activity was calculated as [Luc (N)-Luc (0)]/RL (N), where Luc (N)=Luminescent count of a certain well, Luc (0)=Luminescent count without odorant for each OR, and RL (N)=Luminescent count of Renilla Luciferase of each well. For cAMP assays, cells were plated onto 24-well plate. […]. Prism software (Graphpad) was used for data analysis. […]
(Reporter assays use an easily measured gene product as a stand-in for the process of interest.)

[3] abbreviates: accessory protein co-transfected in 293T cells.

B1: ICAP-1: a negative control protein, Flag-tagged (protein, UniProt O14713 1-200, looked up)
Integrin beta-1-binding …: MFRKGKKRHSSSSSQSSEISTKSKSVDSSLGGLSRSSTVASLDTDSTKSSGQSNNNSDTCAEFRIKYVGAIEKLKLSEGKGLEGPLDLINYIDVAQQDGKLPFVPPEEEFIMGVSKYGIKVSTSDQYDVLHRHALYLIIRMVCYDDGLGAGKSLLALKTTDASNEEYSLWVYQCNSLEQAQAICKVLSTAFDSVLTSEKP
modifications: Flag tag
notes: a negative control protein, Flag-tagged
In the case of B1, the “co-precipitation with HA-MOR203-1” value with MOR203-1 is “not detectable”.

B2: RTP1-D1: RTP1 variant from deleting portions of RTP1-D; murine SEQ ID NO: 48 (protein, listed as Mus musculus)
chain: MRIFRPWRLRCPALHLPSFPTFSIKCSLPPLPTDEDMCKSVTTGEWKKVFYEKMEEVKPADSWDFIIDPNLKHNVLAPGWKQYLELHASGRFHCSWCWHTWQSPHVVILFHMYLDKAQRAGSVRMRVFKQLCYECGTARLDESSMLEENIESLVDNLITSLREQCYGERGGHYRIHVASRQDNRRHRGEFCEACQEGIVHWKPSEKLLEEEA
Turning to B2, in the experiment with olfr62 [1] (setting [3]), the “cell-surface expression of olfr62” value was “Increased cell-surface staining”.

B3: RTP1-D: RTP1 variant generated by deleting portions of RTP1; murine SEQ ID NO: 44 (protein, listed as Mus musculus)
chain: MRIFRPWRLRCPALHLPSFPTFSIKCSLPPLPTDEDMCKSVTTGEWKKVFYEKMEEVKPADSWDFIIDPNLKHNVLAPGWKQYLELHASGRFHCSWCWHTWQSPHVVILFHMYLDKAQRAGSVRMRVFKQLCYECGTARLDESSMLEENIESLVDNLITSLREQCYGERGGHYRIHVASRQDNRRHRGEFCEACQEGIVHWKPSEKLLEEEATTYTFSRAPSPTKPQAETGSGC
As for B3, in the experiment with olfr62 [1] (RTP1 variant cDNA transfected into Hana3A cells or 293T cells), the “cell-surface expression of olfr62” value is reported as “Increased cell-surface staining”. For the same molecule, the “OLFR62 activity as indicated by luciferase expression” value with olfr62 [2] was “Increased enhancement”.

B4: RTP1-D3: RTP1 variant from deleting portions of RTP1-D; murine SEQ ID NO: 50 (protein, listed as Mus musculus)
chain: MRIFRPWRLRCPALHLPSFPTFSIKCSLPPLPTDEDMCKSVTTGEWKKVFYEKMEEVKPADSWDFIIDPNLKHNVLAPGWKQYLELHASGRFHCSWCWHTWQSPHVVILFHMYLDKAQRAGSVRMRVFKQLCYECGTARLDESSMLEENIESLVDNLITSLREQCYGERGGHYRIHVASRQDNRRHRGEFCEACQEGIVHWKPSEKLLEEEATTYTFSRAPSPTKPQAETGSGCNFCSIPWCLFWATVLMLII
Take B4: in the experiment on olfr62 [1] (setting [3]), the “cell-surface expression of olfr62” value is on record as “Increased cell-surface staining”.

(Values after US7838288B2, “Modulators of odorant receptors” (Duke University, priority 2004, dated 2010).)
